Columns and labels:
Assay in all cases: cell-based or functional assay
[1] = target: T1, human IL-18 receptor complex (IL-18Rα/β) (human, UniProt Q13478 19-541; O95256 20-599)
T1 sequence (looked up) 1: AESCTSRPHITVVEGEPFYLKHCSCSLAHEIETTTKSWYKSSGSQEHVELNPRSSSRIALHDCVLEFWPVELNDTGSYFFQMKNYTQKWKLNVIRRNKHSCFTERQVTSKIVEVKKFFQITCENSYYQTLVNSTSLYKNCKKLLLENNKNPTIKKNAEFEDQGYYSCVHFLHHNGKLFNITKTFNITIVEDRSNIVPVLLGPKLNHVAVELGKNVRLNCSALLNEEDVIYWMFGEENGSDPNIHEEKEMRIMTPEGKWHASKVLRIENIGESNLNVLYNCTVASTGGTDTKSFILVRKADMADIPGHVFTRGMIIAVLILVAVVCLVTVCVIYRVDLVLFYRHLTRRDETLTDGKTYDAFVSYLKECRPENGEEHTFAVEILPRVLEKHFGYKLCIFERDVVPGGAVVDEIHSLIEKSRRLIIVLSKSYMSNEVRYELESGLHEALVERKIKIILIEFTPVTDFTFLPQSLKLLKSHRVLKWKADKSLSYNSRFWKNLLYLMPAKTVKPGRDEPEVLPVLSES
T1 sequence (looked up) 2: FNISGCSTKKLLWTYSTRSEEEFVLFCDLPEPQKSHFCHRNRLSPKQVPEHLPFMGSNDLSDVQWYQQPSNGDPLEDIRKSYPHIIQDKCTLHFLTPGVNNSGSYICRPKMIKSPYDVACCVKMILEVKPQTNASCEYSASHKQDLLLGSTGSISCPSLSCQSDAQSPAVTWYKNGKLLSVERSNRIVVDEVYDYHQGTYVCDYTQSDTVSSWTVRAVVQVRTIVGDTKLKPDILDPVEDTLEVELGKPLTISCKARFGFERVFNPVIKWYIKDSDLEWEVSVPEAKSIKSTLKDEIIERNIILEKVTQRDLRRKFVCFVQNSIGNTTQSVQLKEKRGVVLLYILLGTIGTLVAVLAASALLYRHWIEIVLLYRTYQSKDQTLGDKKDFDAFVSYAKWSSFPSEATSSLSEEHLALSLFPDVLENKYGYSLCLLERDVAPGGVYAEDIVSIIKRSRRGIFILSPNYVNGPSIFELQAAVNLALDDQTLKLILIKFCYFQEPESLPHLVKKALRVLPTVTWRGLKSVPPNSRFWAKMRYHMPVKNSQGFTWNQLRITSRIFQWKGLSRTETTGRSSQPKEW

[2] = target: T1, human IL-18 receptor complex (IL-18Rα/β); remark: listed apart in the source
[3] = target: T2, human recombinant IL-18-BP (human, UniProt O95998 31-194)
T2 sequence (looked up): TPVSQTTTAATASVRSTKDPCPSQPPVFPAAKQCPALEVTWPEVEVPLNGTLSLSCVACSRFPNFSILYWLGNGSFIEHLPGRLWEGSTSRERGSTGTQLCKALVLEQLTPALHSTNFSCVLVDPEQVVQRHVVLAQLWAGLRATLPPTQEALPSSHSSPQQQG

[4] = target: T1, human IL-18 receptor complex (IL-18Rα/β); remark: listed apart in the source

B1: FUSE-782 (antibody, human IgG1, kappa, L234A L235A)
heavy 1: QVQLVESGGGVVQPGRSLRLDCKASGITFSNSGMHWVRQAPGKGLEWVAVIWYDGSKRYYADSVKGRFTISRDNSKNTLFLQMSSLRAEDTAVYYCATNDDYWGQGTLVTVSSASTKGPSVFPLAPSSKSTSGGTAALGCLVKDYFPEPVTVSWNSGALTSGVHTFPAVLQSSGLYSLSSVVTVPSSSLGTQTYICNVNHKPSNTKVDKKVEPKSCDKTHTCPPCPAPEAAGGPSVFLFPPKPKDTLMISRTPEVTCVVVDVSHEDPEVKFNWYVDGVEVHNAKTKPREEQYNSTYRVVSVLTVLHQDWLNGKEYKCKVSNKALPAPIEKTISKAKGQPREPQVYTLPPSREEMTKNQVSLSCAVKGFYPSDIAVEWESNGQPENNYKTTPPVLDSDGSFFLVSKLTVDKSRWQQGNVFSCSVMHEALHNRFTQKSLSLSPGK
heavy 2: QVQLVESGGGVVQPGRSLRLDCKASGITFSNSGMHWVRQAPGKGLEWVAVIWYDGSKRYYADSVKGRFTISRDNSKNTLFLQMSSLRAEDTAVYYCATNDDYWGQGTLVTVSSASTKGPSVFPLAPSSKSTSGGTAALGCLVKDYFPEPVTVSWNSGALTSGVHTFPAVLQSSGLYSLSSVVTVPSSSLGTQTYICNVNHKPSNTKVDKKVEPKSCDKTHTCPPCPAPEAAGGPSVFLFPPKPKDTLMISRTPEVTCVVVDVSHEDPEVKFNWYVDGVEVHNAKTKPREEQYNSTYRVVSVLTVLHQDWLNGKEYKCKVSNKALPAPIEKTISKAKGQPREPQVYTLPPSREEMTKNQVSLWCLVKGFYPSDIAVEWESNGQPENNYKTTPPVLDSDGSFFLYSKLTVDKSRWQQGNVFSCSVMHEALHNHYTQKSLSLSPGGGGGSGGGGSGGGGSGGGGSAAEPVEDNSINFVAMKFIDNTLYFIAENDENGGGSYFGKLESKLSVIRNLNDQVLFIDQGNRPLFEDMTDSDSRDNAPRTIFIISKYGDSQPRGLAVTISVKSEKISTLSSENKIISFKEMNPPDNIKDTKSDIIFFQRSVPGHDNKVQFESSSYEGYFLASEKERDLFKLILKKEDELGDRSIMFTVQNED
light: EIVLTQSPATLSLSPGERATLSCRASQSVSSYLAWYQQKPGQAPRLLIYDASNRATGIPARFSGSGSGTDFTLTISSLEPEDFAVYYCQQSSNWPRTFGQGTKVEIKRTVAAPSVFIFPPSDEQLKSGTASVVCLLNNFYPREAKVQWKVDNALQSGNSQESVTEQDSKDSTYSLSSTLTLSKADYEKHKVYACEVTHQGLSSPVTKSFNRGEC
IL18 biological activity on HEK Blue IL18 (trans activity only), attenuation relative to recombinant human IL18 [1]: > 100000 fold | SEAP release of PD-1 decorated HEK Blue IL18 (cis activity), increase relative to non targeted FUSE827 [1]: ~100 fold | SEAP release, PD-1 decorated HEK Blue IL-18 against non-decorated HEK Blue IL18 [1]: ~100 fold

B2: FUSE-783 (antibody, human IgG1, kappa, L234A L235A)
heavy 1: QVQLVESGGGVVQPGRSLRLDCKASGITFSNSGMHWVRQAPGKGLEWVAVIWYDGSKRYYADSVKGRFTISRDNSKNTLFLQMSSLRAEDTAVYYCATNDDYWGQGTLVTVSSASTKGPSVFPLAPSSKSTSGGTAALGCLVKDYFPEPVTVSWNSGALTSGVHTFPAVLQSSGLYSLSSVVTVPSSSLGTQTYICNVNHKPSNTKVDKKVEPKSCDKTHTCPPCPAPEAAGGPSVFLFPPKPKDTLMISRTPEVTCVVVDVSHEDPEVKFNWYVDGVEVHNAKTKPREEQYNSTYRVVSVLTVLHQDWLNGKEYKCKVSNKALPAPIEKTISKAKGQPREPQVYTLPPSREEMTKNQVSLSCAVKGFYPSDIAVEWESNGQPENNYKTTPPVLDSDGSFFLVSKLTVDKSRWQQGNVFSCSVMHEALHNRFTQKSLSLSPGK
heavy 2: QVQLVESGGGVVQPGRSLRLDCKASGITFSNSGMHWVRQAPGKGLEWVAVIWYDGSKRYYADSVKGRFTISRDNSKNTLFLQMSSLRAEDTAVYYCATNDDYWGQGTLVTVSSASTKGPSVFPLAPSSKSTSGGTAALGCLVKDYFPEPVTVSWNSGALTSGVHTFPAVLQSSGLYSLSSVVTVPSSSLGTQTYICNVNHKPSNTKVDKKVEPKSCDKTHTCPPCPAPEAAGGPSVFLFPPKPKDTLMISRTPEVTCVVVDVSHEDPEVKFNWYVDGVEVHNAKTKPREEQYNSTYRVVSVLTVLHQDWLNGKEYKCKVSNKALPAPIEKTISKAKGQPREPQVYTLPPSREEMTKNQVSLWCLVKGFYPSDIAVEWESNGQPENNYKTTPPVLDSDGSFFLYSKLTVDKSRWQQGNVFSCSVMHEALHNHYTQKSLSLSPGGGGGSGGGGSGGGGSGGGGSAAEPVEDNVINFVAMKFIDNTLYFIAENDENGGGSYFGKLESKLSVIRNLNDQVLFIDQGNRPLFEDMTDSDVRDNAPRTIFIISKYGDSQPRGLAVTISVKVEKISTLSVENKIISFKEMNPPDNIKDTKSDIIFFQRSVPGHDNKVQFESSSYEGYFLAVEKERDLFKLILKKEDELGDRSIMFTVQNED
light: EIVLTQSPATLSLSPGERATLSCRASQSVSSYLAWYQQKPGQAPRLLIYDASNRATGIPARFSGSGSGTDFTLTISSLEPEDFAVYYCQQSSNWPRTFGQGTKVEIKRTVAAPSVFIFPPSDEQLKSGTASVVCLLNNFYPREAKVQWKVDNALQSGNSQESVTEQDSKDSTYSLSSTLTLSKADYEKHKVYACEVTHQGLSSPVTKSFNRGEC
IL18 biological activity on HEK Blue IL18 (trans activity only), attenuation relative to recombinant human IL18 [1]: ~1000 fold | SEAP release of PD-1 decorated HEK Blue IL18 (cis activity), increase relative to non targeted FUSE775 [1]: ~30 fold | SEAP release, PD-1 decorated HEK Blue IL-18 against non-decorated HEK Blue IL18 [1]: ~30 fold

B3: IL-18AV released from FUSE-442 by enterokinase (ligand)
chain: YFGKLESKLSVIRNLNDQVLFIDQGNRPLFEDMTDSDVRDNAPRTIFIISMYKDSQPRGMAVTISVKVEKISTLSVENKIISFKEMNPPDNIKDTKSDIIFFQRSVPGHDNKMQFESSSYEGYFLAVEKERDLFKLILKKEDELGDRSIMFTVQNED
EC50-SEAP, HEK-Blue IL-18 reporter cells, EK-cleaved FUSE-442 titrated in medium alone (row 'FUSE442 + EK') [2]: 0.0186 ng/mL | EC50-SEAP, HEK-Blue IL-18 reporter cells, EK-cleaved FUSE-442 titrated in medium with 1.25 µg/ml rhIL-18BP (row 'FUSE442 + EK +BP') [3]: 0.211 ng/mL

B4: IL-18mut2AV released from FUSE-424 by enterokinase (ligand)
chain: YFGKLESKLSVIRNLNDQVLFIDQGNRPLFEDMTDSDVRDNAPRTIFIISKYGDSQPRGLAVTISVKVEKISTLSVENKIISFKEMNPPDNIKDTKSDIIFFQRSVPGHDNKVQFESSSYEGYFLAVEKERDLFKLILKKEDELGDRSIMFTVQNED
EC50-SEAP, HEK-Blue IL-18 reporter cells, EK-cleaved FUSE-424 titrated in medium alone (table G beside graph F 'EK-FUSE424'; the table row itself is labelled 'FUSE442 + EK') [4]: 0.0034 ng/mL

Source: patent US20260274968A1 (FUSE BIOTHERAPEUTICS, published 2026)
